Where a chain is given by its changes, count along the chain named. Each block holds one binder with its values, some of them ahead of it.
What was measured:
[1] = molecular target: T1, cyno KLRG1 extracellular domain (ECD) (cynomolgus, biotinylated in the Octet assay (site not stated)); test: hybridoma screening for binding to cyno KLRG1 ECD
T1 construct: Recombinant proteins were made as FC fusion or HIS tagged versions; also called cynomolgus-KLRG1-ECD; cyno KRG1 ECD
T1 chain: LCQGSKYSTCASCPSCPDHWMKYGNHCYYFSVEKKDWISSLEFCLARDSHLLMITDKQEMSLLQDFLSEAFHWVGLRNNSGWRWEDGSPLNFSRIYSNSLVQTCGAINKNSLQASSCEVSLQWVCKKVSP

[2] = molecular target: T2, full length cynomolgus KLRG1 (cell-expressed) (cynomolgus, UniProt A0A2K5WAP9 1-186); test: FACS on CHO cells expressing full length cynomolgus KLRG1, anti-mouse detection
T2 construct: whole, on cells; also called CHO-cynomolgus-KLRG1; cyno KLRG1
T2 sequence: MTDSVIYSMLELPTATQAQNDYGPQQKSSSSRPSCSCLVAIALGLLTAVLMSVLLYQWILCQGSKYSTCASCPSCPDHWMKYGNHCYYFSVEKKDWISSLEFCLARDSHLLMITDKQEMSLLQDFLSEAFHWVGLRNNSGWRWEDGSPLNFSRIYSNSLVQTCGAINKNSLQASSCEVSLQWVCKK
Method: (§1) Binding of anti-KLRG1 monoclonal antibodies to cells that expressed human and cynomolgus-KLRG1 was carried out by FACS. Chinese hamster ovary (CHO) cells were stably transfected to express full length human KLRG1 (CHO-human-KLRG1) and cynomolgus KLRG1 (CHO-cynomolgus-KLRG1). […] Table 7 summarizes the EC50 binding data measured for selected antibodies.

[3] = molecular target: T3, full length human KLRG1 (cell-expressed) (human, UniProt Q96E93 1-195); test: FACS on CHO cells expressing full length human KLRG1, anti-mouse detection
T3 construct: whole, on cells; also called CHO-human-KLRG1
T3 sequence (looked up): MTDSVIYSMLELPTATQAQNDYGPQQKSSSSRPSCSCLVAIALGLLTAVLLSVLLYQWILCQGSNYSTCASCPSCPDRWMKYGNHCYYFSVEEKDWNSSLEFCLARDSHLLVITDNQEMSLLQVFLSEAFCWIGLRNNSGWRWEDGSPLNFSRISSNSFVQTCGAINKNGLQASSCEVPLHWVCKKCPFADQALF
Method: as §1

[4] = molecular target: T1, cyno KLRG1 extracellular domain (ECD); test: Octet BLI, biotinylated antigen on streptavidin sensor, antibody in solution, 1:1 fit
Method: (§2) Binging kinetics of humanized antibodies for human and cynomolgus KLRG1 were determined by Octet® Systems (ForteBio) measurement. The Octet® platform includes instruments, biosensors, reagents, and assay kits for analysis of biomolecular interactions in 96- and 384-well microplates for use in real-time, label-free analysis for determination of affinity, kinetics, and concentration. The experimental set-up includes immobilizing biotinylated recombinant antigen (Human-KLRG-ECD or cynomolgus-KLRG1-ECD) on a streptavidin Octet® sensor to produce antigen loaded sensors. […] Thereafter, the sensors can be exposed to a solution of 1× phosphate buffered saline (PBS) buffer devoid of antibody for approximately 600 seconds to observe dissociation kinetics (kdis). The resulting data can then be fitted to a 1:1 binding kinetics model using, for example, ForteBio analysis software to calculate the KD. Kinetic binding parameters derived by this method are summarized in Table 8 for three humanized antibodies.

[5] = molecular target: T4, human KLRG1 extracellular domain (ECD) (human, UniProt Q96E93 60-186, biotinylated in the Octet assay (site not stated)); test: as above
T4 construct: Recombinant proteins were made as FC fusion or HIS tagged versions; also called Human-KLRG-ECD; human KLRG1 ECD
T4 sequence: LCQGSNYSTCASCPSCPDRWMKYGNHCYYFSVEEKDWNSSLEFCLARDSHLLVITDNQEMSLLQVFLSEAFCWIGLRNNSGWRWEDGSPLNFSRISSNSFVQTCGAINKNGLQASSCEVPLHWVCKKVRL
Method: as §2

SPLNFSRISSNSFVQ = molecular target: T5, SPLNFSRISSNSFVQ; test: peptide mapping: ABC_G1D03 on overlapping KLRG1 peptides, signal per peptide
T5 peptide: SPLNFSRISSNSFVQ

WEDGSPLNFSRISSN = molecular target: T6, WEDGSPLNFSRISSN; test: as above
T6 peptide: WEDGSPLNFSRISSN

B1: ABC_G1D05 (antibody, V domains shown)
VH: QVQLKQSGPGLVQPSQSLSITCTVSGFSLTTHGVHWVRQSPGKGLEWLGVIWSGGSTDYNAAFISRLSIRKDNSKSQVFFKMNSLQTNDTAIYYCARLRLPAMDYWGQGTSVTVSS
VL: QIVLTQSPTIMSASLGERVTMTCTASSSVSSTYLHWYQQKPGSSPKLWIYSTSNLASGVPARFSGSGSGTSYSLTISSMEAEDAATYYCHQYHRSPLSFGAGTKLELK
notes: Mouse hybridoma monoclonal antibody
binding result [1]: binds
EC50 [2]: 5.93 nM
EC50 [3]: 5.15 nM

B2: ABC_HG1D03 (antibody, V domains shown)
VH: EVQLVQSGAEVKKPGASVKVSCKASGYTFTDHNMHWVKQATGQGLEWFGFINPNTGVTRYNQKFQGRVTLTINKAISTAYLELSSLRSEDTAVYYCARDYYGSAWFAYWGQGTLVTVSS
VL: not shown
notes: The printed VK entry ends at '...FGGGTKV' (appears cut short of the usual end of the domain)
Kd [4]: 0.0609 nM
koff [4]: 3.82e-05 s⁻¹
kon [4]: 627000 M⁻¹ s⁻¹
Kd [5]: 0.156 nM
koff [5]: 5.91e-05 s⁻¹
kon [5]: 380000 M⁻¹ s⁻¹

B3: ABC_HG1D02 (antibody, V domains shown)
VH: QVQLVQSGAEVKKPGSSVKVSCKASGYAFTNYFIEWVRQRPGQGLEWMGVINPGSGGTNYNEKFKGRVTITADKSSSTAYMELSSLRSEDTAVYYCARPGHFDYWGQGTTVTVSS
VL: EIVLTQSPTTLSLSPGERATLSCSASSSISSNYLHWYQQKPGFAPRLLIYKTSNLASGIPPRFSGSGSGTDFTLTISRLEPEDFAVYYCQQGNSIPRTFGQGTKVEIKR
notes: The printed VK entry ends in 'RTV' (start of the constant kappa domain)
Kd [4]: 0.388 nM
koff [4]: 0.000142 s⁻¹
kon [4]: 367000 M⁻¹ s⁻¹
Kd [5]: 0.0567 nM
koff [5]: 3.07e-05 s⁻¹
kon [5]: 541000 M⁻¹ s⁻¹

B7: ABC_G1D01 (antibody, V domains shown)
VH: EVQLQQSGPELVKPGASVKMSCKASGYTFTDYNIHWVKQSHGKSLEWIGFFNPKNGVTINNQNFKGKAALTVNKSSSTAYMELRRLTSEDSAVYYCARDYYGTAWFAYWGQGTLVTVSA
VL: DIVMSQSPSSLAVSVGEKVTMSCRSSQSLLYSSNQKNYLAWYQQKPGQSPKLLIYWASTRESGVPDRFTGSGSGTDFTLTISSVKAEDLAVYYCQQFYSYPTFGGGTKLEIK
notes: as for B1
EC50 [2]: 3.44 nM
EC50 [3]: 4.87 nM

Other lines, results leading:

binding result [1]: binds
EC50 [2]: 3.4 nM
EC50 [3]: 72.5 nM
B4: ABC_G1D06 (antibody, V domains shown)
VH: QVQLQQSGAELVRPGASVTLSCKASGYKFSDYEIHWVKQTPVYGLEWIGALEPATGGTAYNPNFKGKAILTADKSSTTAYMELRSLTSEDSAVYYCSMHLAVYWGQGTLVTVSA
VL: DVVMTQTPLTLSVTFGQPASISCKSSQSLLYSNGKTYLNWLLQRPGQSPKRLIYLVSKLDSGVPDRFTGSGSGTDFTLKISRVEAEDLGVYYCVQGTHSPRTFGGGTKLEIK
notes: as for B1

binding result [1]: binds
EC50 [2]: 10.1 nM
EC50 [3]: 9.11 nM
B5: ABC_G1D02 (antibody, V domains shown)
VH: QVQLQQSGAELVRPGTSVKVSCKASGYAFTNYFIEWIKQRPGQGLEWIGVINPGSGGTNYNEKFKGKATLTADKSSSTAYMQLSSLTSEDSAVYFCTRPGHFDYWGQGTTLTVSS
VL: EIVLTQSPTTMAASPGEKITITCSASSSISSNYLHWYQQKPGFSPKLLIYKTSNLASGVPPRFSGSGSGTSYSLTIGTMEAEDVATYYCQQGNSIPRTFGGGTKLEIK
notes: as for B1

binding result [1]: binds
binding result (SPLNFSRISSNSFVQ): binds
binding result (WEDGSPLNFSRISSN): binds
EC50 [2]: 8.63 nM
EC50 [3]: 6.3 nM
B6: ABC_G1D03 (antibody, V domains shown)
VH: EVQLQQSGPELVKPGASVKMSCKTSGYTFTDHNMHWLKQSHGKGLEWFGFINPNTGVTRYNQKFNGKATLTINKSSSTAYLDLRSLTSEDSAVYYCTRDYYGSAWFAYWGQGTLVTVSA
VL: B7 VL with S9A, L11Q, A12T, R24K, S28T, N34D, F97Y, S99N
notes: as for B1

binding result [1]: binds
EC50 [2]: 7.2 nM
EC50 [3]: 213 nM
B8: ABC_G1D04 (antibody, V domains shown)
VH: EVQLQQSGPELVKPGSSLMMSCKSSGYTFTDYNIHWVKQSHGKRLEWIGFIDPKNGGTLYSEKFKDKATLTINKSSSTAYMELRSLTSEDSAVFYCAPDYYGSAWFAYWGQGTLVTVSA
VL: DIVMSQSPSSLTVSVGENVTMSCKSSQNLLYTSNQKNYLAWYQQKPGHSPKLLISWASTRESGVPDRFTGSGSGTDFTLTITSVKAEDLAVFYCQQYYHYPTFGGGTKLEIK
notes: as for B1

From patent US20200325233A1 (ABCURO, published 2020)
